In patent publication US20040132067, “Systematic evolution of ligands by exponential enrichment: photoselection of nucleic acid ligands and solution selex” (SOMALOGIC, INC., published 2004):

How the values were obtained:
HIV-1 Rev [1] = target: T1, HIV-1 Rev (Human immunodeficiency virus 1, UniProt P04618 P04618:1-116); experiment: photocrosslinking 325 nm, 4 min, 500 nM protein, 20 ug tRNA, 37 C
Excerpt: The sequences are aligned for maximum homology to the 6a sequence (SEQ ID NO:5). Underlines represent potential base pairing as indicted by computer RNA folding algorithms. Dashed underlines represent the 6a ligand “bubble” motif. Sequences flanked by underline represent either loop or bulge regions. Dashes are placed to maximize alignment with 6a. * denotes that two isolates were obtained. +indicates laser independent crosslinking and—denotes the lack of laser independent crosslinking to HIV-1 Rev. […] FIGS. 18 and 19 show the sequence of Trunc2 (SEQ ID NO:58) and Trunc24 (SEQ-ID NO:59) and the specificity results. 500 nM protein, 20 μg tRNA, and approximately 1 nM of kinased trunc2 RNA were incubated for 10 min. at 37° C. and irradiated for 4 min at 325 nm. t2-trunc2 RNA irradiated without added protein; t2Rev1/O′-trunc2 RNA, HIV-1 Rev protein and 0 min. of irradiation; t2/Rev1/4′-trunc2 RNA, HIV-1 Rev protein, adn 4 min. of irradiation; t2/Rev1/4′/PK-trunc2 RNA, HIV-1 Rev protein, 4 min. or irradiation, and proteinase K treated as in FIG. 1; t2/Rev2/4′-trunc2 RNA, HIV-2 Rev protein, and 4 min. of irradiation; t2/Tat/4′-trunc2 RNA, HIV-1 Tat protein, and 4 min. of irradiation. R-free RNA; XL-crosslinked nucleoprotein complex.

HIV-1 Rev [2] = target: T1, HIV-1 Rev; experiment: photo-independent crosslinking seen at 50 nM Rev in 1:100 weight ratio with human nuclear extract
Method: Trunc24 (SEQ ID NO:59) photo-independent crosslinking with HIV-1 Rev in the presence of human nuclear extracts was determined as follows: Trunc24 RNA, nuclear extracts, and Rev protein were combined and incubated on ice for 10 min. Samples were mixed 1:1 with 8 M urea loading buffer and placed on a 7 M urea, 8% polyacrylamide gel for analysis, XL indicates the nucleoprotein complex, RNA indicates free trunc24 RNA.

T1 sequence (P04618 whole entry, one chain of several): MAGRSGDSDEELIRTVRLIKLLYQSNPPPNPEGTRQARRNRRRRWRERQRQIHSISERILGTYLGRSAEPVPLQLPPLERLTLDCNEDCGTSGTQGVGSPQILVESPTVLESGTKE

Binder	binding result (HIV-1 Rev [1])	binding result (HIV-1 Rev [2])
GGGUGUAUGAAACACCACGUGUGUUUCCACUC (ssRNA, 5-iodouracil at all U) [trunc2]	binds	
GGGGAUUAACAGGCACACCUGUUAACCCU (ssRNA) [trunc24]		binds
